Assay results as given in patent US7790682B1, “Engineered human acidic fibroblast growth factors and associated methods” (The Florida State University Research Foundation, Inc., priority 2003, dated 2010).
Several values for one entry are separate records, joined by “and”; a condition that tells them apart may be missing. Equal values may be shown once. Entries after “also recorded” stand apart in the source; their conditions may differ.

B1: SYM5: FGF-1 core mutant Leu44→Phe/Leu73→Val/Val109→Leu/Leu111→Ile/Cys117→Val (protein, UniProt P05230 16-155, looked up, variant L44F L73V V109L L111I C117V)
Fibroblast growth factor 1: FNLPPGNYKKPKLLYCSNGGHFLRILPDGTVDGTRDRSDQHIQFQLSAESVGEVYIKSTETGQYLAMDTDGLVYGSQTPNEECLFLERLEENHYNTYISKKHAEKNWFLGIKKNGSVKRGPRTHYGQKAILFLPLPVSSD
B2: SYM6/ΔΔ: SYM6 FGF-1 mutant plus both Δ104-106 and Δ120-122 deletion mutations, SEQ ID NO: 1 (protein)
chain: FNLPPGNYKKPKLLYCSNGGHFLRILPDGTVDGTRDRSDQHIQFQLSAESVGEVYIKSTETGQYLAIDTDGLVYGSQTPNEECLFLERLEENHYNTYISKKHGWFLGIKKNGSVKGTHYGQKAILFLPLPVSSD
modifications: Human FGF-1 mutant SYM6DD
B3: SYM5/Δ104-106: SYM5 FGF-1 mutant plus Ala103→Gly/ΔGlu104/ΔLys105/ΔAsn106 (protein, UniProt P05230 16-155, looked up, variant L44F L73V V109L L111I C117V A103G del104-106)
Fibroblast growth factor 1: FNLPPGNYKKPKLLYCSNGGHFLRILPDGTVDGTRDRSDQHIQFQLSAESVGEVYIKSTETGQYLAMDTDGLVYGSQTPNEECLFLERLEENHYNTYISKKHGWFLGIKKNGSVKRGPRTHYGQKAILFLPLPVSSD
B4: SYM5/Δ120-122: SYM5 FGF-1 mutant plus Arg119→Gly/ΔGly120/ΔPro121/ΔArg122, SEQ ID NO: 2 (protein)
chain: FNLPPGNYKKPKLLYCSNGGHFLRILPDGTVDGTRDRSDQHIQFQLSAESVGEVYIKSTETGQYLAMDTDGLVYGSQTPNEECLFLERLEENHYNTYISKKHAEKNWFLGIKKNGSVKGTHYGQKAILFLPLPVSSD
modifications: Human FGF-1 mutant SYM5D120-122

Legend:
[1] = Isothermal equilibrium denaturation in guanidine HCl monitored by CD; format: physicochemical; conditions: for Cm / m-value / ΔG0: GuHCl, 298K, CD signal at 227 nm; for ΔΔG: relative to WT*, negative value = more stable
Protocol: Protein samples were equilibrated overnight in 20 mM N-2-(acetamido)iminodiacetic acid (ADA), 100 mM NaCl pH 6.60 at 298K in 0.1M increments of guanidine HCl (GuHCl). All samples contained a final protein concentration of 25 μM. An Aviv model 202 circular dichroism spectrometer (Proterion Corp., Piscataway, N.J.) equipped with a Peltier controlled temperature unit maintaining a constant temperature of 298K was used for all spectroscopic measurements. For each sample, triplicate scans were collected and averaged. Buffer traces were collected, averaged and subtracted from the sample traces. Data smoothing was performed prior to buffer subtraction using a 5-point Fourier transform filter. The denaturation process was monitored by observing the change in CD signal at 227 nm with increasing GuHCl, according to published references. The general purpose non-linear least squares fitting program DataFit™ (Oakdale Engineering, Oakdale Pa.) was used to fit the change in molar ellipticity at 227 nm versus GuHCl concentration to a six parameter two state model: F=(F0N+SN[D]+F0D+SD[D])e^−((ΔG0+m[D]/RT)/1+e^−((ΔG0+m[D]/RT) (1) where [D] is the denaturant concentration, F0N and F0D are the 0M denaturant molar ellipticity intercepts for the native and denatured states, respectively, and SN and SD are the slopes of the native and denatured state baselines, respectively. ΔG0 and m describe the linear function of the unfolding free energy versus denaturant concentration at 298K. The effect of a given mutation upon the stability of the protein (ΔΔG) was calculated by taking the difference between the Cm values for WT* and mutant and multiplying by the average of the m values, as described by Pace and Scholtz (Measuring the conformational stability of a protein; in Protein Structure: A Practical Approach, Creighton, T. E., ed., pp. 299-321, Oxford University Press, Oxford; 1997): ΔΔG=(CmWT*−Cm mutant)(mWT*+mmutant)/2 (2) Folding Kinetics Measurements.
Previous studies by others of the stability and folding of FGF-1 have been performed by monitoring the fluorescence signal of the single buried Trp 107 in FGF-1. This Trp in the WT* structure is somewhat unusual in that it is more highly quenched in the native state than the denatured. […] We have previously compared the fluorescence and CD spectroscopic response of FGF-1 to denaturation by GuHCl and shown essentially indistinguishable results for both his-tagged and non-his-tagged forms. A tabulation of the mutant thermodynamic data from isothermal equilibrium denaturation, monitored by CD signal, is listed in Table II. The data in this table for the SYM6 mutant are from our previously published isothermal equilibrium denaturation study monitored by fluorescence.

[2] = Heparin Sepharose affinity chromatography / heparin-binding affinity
Text: All studies herein disclosed utilized a synthetic gene for the 140 amino acid form of human FGF-1 with the addition of an amino-terminal six residue “His-tag” to facilitate purification using nickel nitrilotriacetic acid (Ni-NTA) affinity resin (QIAGEN, Valencia Calif.). The QuikChange® site-directed mutagenesis protocol (Stratagene, La Jolla Calif.) was used to introduce mutations, individually or in combination, using mutagenic oligonucleotides of 25 to 31 bases in length (Biomolecular Analysis Synthesis and Sequencing Laboratory, Florida State University). For deletions involving residues 104-106 and 120-122, mutagenic oligonucleotides were used to delete these positions as well as to simultaneously create point mutations Ala103 ? Gly and Arg119 ? Gly, respectively. […]
All mutant proteins, with the exception of the SYM6 mutant were expressed at levels similar to the WT* protein (i.e. ˜30-100 mg/L). […] Phe, and E280nm (0.1%, 1 cm)=1.31 for all deletion mutations (determined by dithionitrobenzoate titration of cysteine residues).
To quantify the reduced affinity for heparin (a polysulfonated polysaccharide) we determined the affinity for sucrose octasulfate, a structural mimic of a heparin dimer, by isothermal titration calorimetry. […]

Molecule | Cm [1] | m-value [1] | ΔG0 [1] | ΔΔG [1] | effect on stability of insertion of both loop regions ([1]; relative to SYM5ΔΔ) | increase in protein stability ([1]; in comparison to WT*) | heparin-binding affinity (in words) [2]
WT*: Wild type (his-tagged) 140 amino acid form of human FGF-1, SEQ ID NO: 4 [reference compound] | 1.06 ± 0.01 M | 20.1 ± 0.5 kJ/mol M | 21.3 ± 0.8 kJ/mol | 0.0 kJ/mol |  |  | 
B1 | 1.05 ± 0.01 M | 17.5 ± 0.3 kJ/mol M | 18.4 ± 0.4 kJ/mol | 0.2 kJ/mol | +15.0 kJ/mol |  | 
B2 | 1.91 ± 0.02 M | 17.7 ± 0.4 kJ/mol M | 33.9 ± 0.6 kJ/mol | -16.1 kJ/mol |  | 16.1 kJ/mol and ~16 kJ/mol | markedly reduced; also recorded: decreased heparin binding affinity
B3 | 1.47 ± 0.01 M | 17.2 ± 0.5 kJ/mol M | 25.3 ± 0.9 kJ/mol | -7.6 kJ/mol |  |  | 
B4 | 1.00 ± 0.02 M | 16.6 ± 0.5 kJ/mol M | 16.6 ± 0.5 kJ/mol | 1.1 kJ/mol |  |  | 
